This data set has as its target PDH E1α subunit (pyruvate dehydrogenase E1 alpha subunit, 41 kDa) (UniProt P35486).

PDH E1α subunit (pyruvate dehydrogenase E1 alpha subunit, 41 kDa), sequence (P35486 30-390): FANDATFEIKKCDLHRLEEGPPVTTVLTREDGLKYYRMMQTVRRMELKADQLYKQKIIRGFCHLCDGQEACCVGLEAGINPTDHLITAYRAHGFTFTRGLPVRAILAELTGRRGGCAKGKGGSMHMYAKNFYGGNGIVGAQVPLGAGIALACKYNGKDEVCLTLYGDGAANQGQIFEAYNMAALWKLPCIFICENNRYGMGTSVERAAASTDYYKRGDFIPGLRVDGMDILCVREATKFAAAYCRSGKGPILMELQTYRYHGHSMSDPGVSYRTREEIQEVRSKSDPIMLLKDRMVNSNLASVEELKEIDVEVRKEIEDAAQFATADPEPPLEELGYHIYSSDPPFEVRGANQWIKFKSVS
human PDK1 (pyruvate dehydrogenase kinase, isoenzyme 1), sequence (chain, as listed by the source): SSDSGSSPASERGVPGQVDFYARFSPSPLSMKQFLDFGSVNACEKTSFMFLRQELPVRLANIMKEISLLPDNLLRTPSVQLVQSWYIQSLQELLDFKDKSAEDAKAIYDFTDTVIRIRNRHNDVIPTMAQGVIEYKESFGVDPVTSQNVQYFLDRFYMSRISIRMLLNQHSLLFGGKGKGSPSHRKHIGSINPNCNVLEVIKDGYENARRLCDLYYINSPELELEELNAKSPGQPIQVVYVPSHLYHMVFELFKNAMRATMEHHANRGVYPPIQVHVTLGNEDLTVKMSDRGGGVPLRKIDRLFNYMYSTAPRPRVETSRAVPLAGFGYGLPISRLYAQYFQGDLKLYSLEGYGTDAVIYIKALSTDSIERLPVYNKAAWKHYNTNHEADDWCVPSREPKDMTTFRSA

Consider “human PDK1 (pyruvate dehydrogenase kinase, isoenzyme 1)”, for which the “PDH E1α subunit phosphorylation (immunoblot after two-dimensional gel electrophoresis of lysates of Hif1a-/- MEFs with forced PDK1 expression against empty vector)” value is on record as “This overexpression resulted in increased PDH E1α subunit phosphorylation”.

(Values after US20150133524.)
